# Measured values as given in IntAct's records for PubMed 34948388.
# B1: Multifunctional methyltransferase subunit TRM112-like protein (Homo sapiens), Q9UI30 (parent)
# chain: MKLLTHNLLSSHVRGVGSRGFPLRLQATEVRICPVEFNPNFVARMIPKVEWSAFLEAADNLRLIQVPKGPVEGYEENEEFLRTMHHLLLEVEVIEGTLQCPESGRMFPISRGIPNMLLSEEETES
# partner: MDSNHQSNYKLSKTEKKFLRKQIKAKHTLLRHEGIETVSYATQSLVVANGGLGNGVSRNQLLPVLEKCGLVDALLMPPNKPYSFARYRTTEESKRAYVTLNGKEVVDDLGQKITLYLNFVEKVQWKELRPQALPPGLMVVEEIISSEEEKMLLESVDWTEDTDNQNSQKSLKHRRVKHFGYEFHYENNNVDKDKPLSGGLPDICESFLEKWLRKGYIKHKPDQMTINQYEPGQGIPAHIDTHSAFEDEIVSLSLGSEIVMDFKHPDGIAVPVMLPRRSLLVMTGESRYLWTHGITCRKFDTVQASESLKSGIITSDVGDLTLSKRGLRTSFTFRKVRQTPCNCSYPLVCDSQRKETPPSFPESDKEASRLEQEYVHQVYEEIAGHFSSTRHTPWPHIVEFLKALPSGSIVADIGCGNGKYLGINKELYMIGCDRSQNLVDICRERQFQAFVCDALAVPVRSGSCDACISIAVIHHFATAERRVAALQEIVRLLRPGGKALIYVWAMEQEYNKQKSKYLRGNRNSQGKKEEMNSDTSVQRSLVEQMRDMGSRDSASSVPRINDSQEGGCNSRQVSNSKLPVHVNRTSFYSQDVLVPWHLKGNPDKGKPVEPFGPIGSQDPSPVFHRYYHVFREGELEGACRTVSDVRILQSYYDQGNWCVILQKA
# B2: Multifunctional methyltransferase subunit TRM112-like protein (Homo sapiens), Q9UI30 (parent)
# chain: B1 chain
# partner: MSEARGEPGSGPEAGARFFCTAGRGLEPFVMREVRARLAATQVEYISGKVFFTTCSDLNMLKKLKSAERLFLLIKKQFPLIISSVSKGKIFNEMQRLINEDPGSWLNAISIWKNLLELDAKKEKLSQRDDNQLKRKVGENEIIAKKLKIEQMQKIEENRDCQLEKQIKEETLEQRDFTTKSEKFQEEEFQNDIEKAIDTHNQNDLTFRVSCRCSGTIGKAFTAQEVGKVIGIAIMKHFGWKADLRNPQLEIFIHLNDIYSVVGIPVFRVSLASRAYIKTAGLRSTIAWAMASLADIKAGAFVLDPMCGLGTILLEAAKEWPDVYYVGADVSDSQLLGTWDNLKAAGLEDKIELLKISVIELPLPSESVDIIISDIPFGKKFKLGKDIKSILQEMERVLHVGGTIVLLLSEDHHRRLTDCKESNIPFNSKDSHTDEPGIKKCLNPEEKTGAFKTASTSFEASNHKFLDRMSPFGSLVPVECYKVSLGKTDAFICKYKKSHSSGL
# Variants of: B1
# Conditions: with alkb8_human ALKBH8, Q96BT7
row,effect of a mutation on the interaction,Variant
1,decreasing interaction strength,E92A
2,disrupting interaction strength,T5A
3,with no effect,L8W
4,with no effect,S10F
5,with no effect,K48A
6,disrupting interaction strength,K48A;E92A
7,decreasing interaction strength,F107A
8,with no effect,I113A
9,with no effect,E50A
10,disrupting interaction strength,M45A

# Variants of: B2
# Conditions: with thum2_human THUMPD2, Q9BTF0
row,effect of a mutation on the interaction,Variant
1,disrupting interaction strength,I113A
